The Immune Epitope Database (IEDB)

Experiments:
[1] = target: HLA-A*24:02; assay: IEDB peptide-MHC binding, cellular MHC/competitive/fluorescence; ≥ and ≤ were set here for values at or beyond the usual limits of such assays; conditions: source organism: Human herpesvirus 5 strain AD169
[2] = target: HLA-B*51:01; assay: IEDB peptide-MHC binding, purified MHC/direct/fluorescence; filed as Kd, often an IC50 or EC50 that approximates it; ≥ and ≤ were set here for values at or beyond the usual limits of such assays
[3] = target: HLA-B*15:01; assay: as above
[4] = target: HLA-A*26:01; assay: as above
[5] = target: HLA-A*68:02; assay: as above
[6] = target: HLA-A*02:12; assay: as above
[7] = target: HLA-A*02:11; assay: as above
[8] = target: HLA-A*03:01; assay: as above
[9] = target: HLA-B*27:03; assay: as above
[10] = target: HLA-A*02:01; assay: as above
[11] = target: HLA-A*02:03; assay: as above; conditions: source organism: Burkholderia mallei ATCC 23344
[12] = target: HLA-B*46:01; assay: as above
[13] = target: HLA-A*02:16; assay: as above
[14] = target: HLA-A*02:19; assay: as above
[15] = target: HLA-A*69:01; assay: as above
[16] = target: HLA-B*39:01; assay: as above
[17] = target: HLA-A*24:03; assay: as above; conditions: source organism: Burkholderia mallei ATCC 23344
[18] = target: HLA-B*18:01; assay: as above
[19] = target: HLA-B*15:01; assay: IEDB peptide-MHC binding, purified MHC/competitive/fluorescence; filed as Kd, often an IC50 or EC50 that approximates it; ≥ and ≤ were set here for values at or beyond the usual limits of such assays; conditions: source organism: Human immunodeficiency virus 1
[20] = target: HLA-A*30:01; assay: as above; conditions: source organism: Human immunodeficiency virus 1
[21] = target: HLA-A*01:01; assay: as above; conditions: source organism: Human immunodeficiency virus 1
[22] = target: HLA-B*57:01; assay: as above; conditions: source organism: Human immunodeficiency virus 1
[23] = target: HLA-A*26:02; assay: as above; conditions: source organism: Human immunodeficiency virus 1
[24] = target: HLA-A*02:03; assay: as above
[25] = target: HLA-A*02:06; assay: as above; conditions: source organism: Human immunodeficiency virus 1
[26] = target: HLA-A*11:01; assay: as above
[27] = target: HLA-B*35:01; assay: as above; conditions: source organism: Human immunodeficiency virus 1
[28] = target: HLA-B*18:01; assay: as above; conditions: source organism: Human immunodeficiency virus 1
[29] = target: HLA-B*73:01; assay: as above; conditions: source organism: Escherichia coli O157:H7 str. Sakai
[30] = target: HLA-A*01:01; assay: IEDB peptide-MHC binding, purified MHC/competitive/radioactivity; ≥ and ≤ were set here for values at or beyond the usual limits of such assays; conditions: source organism: Homo sapiens
[31] = target: HLA-B*83:01; assay: IEDB peptide-MHC binding, purified MHC/competitive/fluorescence; filed as Kd, often an IC50 or EC50 that approximates it; ≥ and ≤ were set here for values at or beyond the usual limits of such assays; conditions: source organism: Burkholderia pseudomallei S13
[32] = target: HLA-B*45:06; assay: as above; conditions: source organism: Burkholderia pseudomallei S13
[33] = target: HLA-B*15:42; assay: as above; conditions: source organism: Burkholderia pseudomallei S13
[34] = target: HLA-C*04:01; assay: as above; conditions: source organism: Burkholderia pseudomallei S13
[35] = target: HLA-A*23:01; assay: as above; conditions: source organism: Burkholderia pseudomallei S13
[36] = target: HLA-B*48:01; assay: as above; conditions: source organism: Mycobacterium tuberculosis variant bovis BCG str. Pasteur 1173P2
[37] = target: HLA-B*57:01; assay: IEDB peptide-MHC binding, purified MHC/direct/fluorescence; filed as Kd, often an IC50 or EC50 that approximates it; ≥ and ≤ were set here for values at or beyond the usual limits of such assays
[38] = target: HLA-B*58:01; assay: as above; conditions: source organism: Brucella abortus 2308
[39] = target: HLA-B*15:17; assay: as above; conditions: source organism: Brucella abortus 2308
[40] = target: HLA-A*01:01; assay: as above; conditions: source organism: Brucella abortus 2308
[41] = target: HLA-B*73:01; assay: as above; conditions: source organism: Brucella suis 1330
[42] = target: HLA-B*07:02; assay: as above; conditions: source organism: Brucella abortus 2308
[43] = target: HLA-B*27:05; assay: as above; conditions: source organism: Brucella abortus 2308
[44] = target: HLA-B*08:01; assay: as above; conditions: source organism: Brucella suis 1330
[45] = target: HLA-B*48:01; assay: as above; conditions: source organism: Brucella abortus 2308
[46] = target: HLA-A*26:03; assay: IEDB peptide-MHC binding, purified MHC/competitive/fluorescence; filed as Kd, often an IC50 or EC50 that approximates it; ≥ and ≤ were set here for values at or beyond the usual limits of such assays; conditions: source organism: Brucella abortus S19
[47] = target: HLA-A*31:01; assay: as above; conditions: source organism: Brucella abortus S19
[48] = target: HLA-A*68:01; assay: IEDB peptide-MHC binding, purified MHC/competitive/radioactivity; ≥ and ≤ were set here for values at or beyond the usual limits of such assays; conditions: source organism: Hepacivirus hominis
[49] = source organism: Burkholderia mallei ATCC 23344
[50] = source organism: Human immunodeficiency virus 1
[51] = source organism: Mycobacterium tuberculosis str. Haarlem
[52] = source organism: Brucella abortus 2308
[53] = source organism: Brucella abortus S19

## VYYTSAFVF
[1]
  IC50: 35 µM

## LARFPCNVI
[2]; [49]
  Kd: 0.606 µM
[3]; [49]
  Kd: ≥ 20 µM
[4]; [49]
  Kd: ≥ 20 µM
[5]; [49]
  Kd: ≥ 20 µM
[6]; [49]
  Kd: ≥ 20 µM
[7]; [49]
  Kd: ≥ 20 µM
[8]; [49]
  Kd: ≥ 20 µM
[9]; [49]
  Kd: ≥ 20 µM
[10]; [49]
  Kd: ≥ 20 µM
[11]
  Kd: ≥ 20 µM
[12]; [49]
  Kd: ≥ 20 µM
[13]; [49]
  Kd: ≥ 20 µM
[14]; [49]
  Kd: ≥ 20 µM
[15]; [49]
  Kd: ≥ 20 µM
[16]; [49]
  Kd: ≥ 20 µM
[17]
  Kd: ≥ 20 µM
[18]; [49]
  Kd: ≥ 20 µM

## RSLFNTVAVLY
[19]
  Kd: 0.907 µM
[20]
  Kd: 2.96 µM
[21]
  Kd: ≥ 20 µM
[22]
  Kd: 0.676 µM
[23]
  Kd: 3.07 µM
[24]; [50]
  Kd: 0.644 µM
[25]
  Kd: 0.952 µM
[26]; [50]
  Kd: 1.35 µM
[27]
  Kd: 0.387 µM
[28]
  Kd: 0.36 µM

## NEWYVQPQA
[29]
  Kd: 0.0673 µM

## IVDSLTEMY
[30]
  IC50: 0.007 µM

## GFYLSGHLF
[31]
  Kd: ≥ 5 µM
[32]
  Kd: ≥ 5 µM
[33]
  Kd: ≥ 5 µM
[34]
  Kd: ≥ 5 µM
[35]
  Kd: ≤ 0.0001 µM

## RMVIGGVAL
[36]
  Kd: 0.0681 µM

## RLGWRTLDF
[2]; [51]
  Kd: ≥ 20 µM
[4]; [51]
  Kd: ≥ 20 µM
[37]; [51]
  Kd: ≥ 20 µM
[6]; [51]
  Kd: ≥ 20 µM
[7]; [51]
  Kd: ≥ 20 µM
[8]; [51]
  Kd: ≥ 20 µM
[9]; [51]
  Kd: ≥ 20 µM
[10]; [51]
  Kd: ≥ 20 µM
[12]; [51]
  Kd: ≥ 20 µM
[13]; [51]
  Kd: ≥ 20 µM
[14]; [51]
  Kd: ≥ 20 µM
[16]; [51]
  Kd: ≥ 20 µM
[18]; [51]
  Kd: ≥ 20 µM

## RMIESRMSK
[3]; [52]
  Kd: 0.341 µM
[5]; [52]
  Kd: ≥ 20 µM
[38]
  Kd: ≥ 20 µM
[39]
  Kd: ≥ 20 µM
[40]
  Kd: ≥ 20 µM
[37]; [52]
  Kd: ≥ 20 µM
[8]; [52]
  Kd: 0.131 µM
[10]; [52]
  Kd: ≥ 20 µM
[15]; [52]
  Kd: ≥ 20 µM
[16]; source organism: Brucella suis 1330
  Kd: ≥ 20 µM
[41]
  Kd: ≥ 20 µM
[42]
  Kd: ≥ 20 µM
[43]
  Kd: 0.0525 µM
[44]
  Kd: ≥ 20 µM
[18]; [52]
  Kd: ≥ 20 µM
[45]
  Kd: ≥ 20 µM
[46]
  Kd: ≥ 20 µM
[47]
  Kd: 0.0607 µM
[24]; [53]
  Kd: ≥ 20 µM
[26]; [53]
  Kd: 0.0055 µM

## QLFTFSPRR
[48]
  IC50: 0.0026 µM
